# Reference: IntAct's records for PubMed 25042851
# B1: Ubiquitin-binding protein CUE5 (Saccharomyces cerevisiae), Q08412 (parent)
# chain: MEEKEGIKDSSLLEKSNVPESINEDISKTTDVDLNSDGKKDNDTSAKDGTPKVEEKVNKSSGIDEDEVVTPAEDAKEEEEEHPPLPARRKSEEEPSKENPILQELKDAFPNLEEKYIKAVIIASQGVLSPAFNALLFLSDPESGKDIELPTQPVRKNPEAPARRRQTQLEQDELLARQLDEQFNSSHSRRRNRDRATRSMHEQRRRRHNPNEREQHHEDSEEEDSWSQFVEKDLPELTDRAGRSLQDTANKVSNWISDAYRRNFASGNEQNDNQHGHQDQQEWEPEIVDLSQGGKNSRPQQPERRRFNSFGVQVGDDSLESHGITLHNEDGFEDDEDVPPQLPTRTKSGESTGKVVAETTYIDTPDTETKKKWQPLPPEPLDTTPTKVNAVSRNKKNPDEDEFLINSDDEM
# partner: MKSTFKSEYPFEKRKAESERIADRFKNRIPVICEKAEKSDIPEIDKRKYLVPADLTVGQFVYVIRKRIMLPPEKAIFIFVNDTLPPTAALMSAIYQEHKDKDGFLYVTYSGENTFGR
# B2: Ubiquitin-binding protein CUE5 (Saccharomyces cerevisiae), Q08412 (parent)
# chain: B1 chain
# Variants of: B1
# Conditions: with atg8_yeast ATG8, P38182
row,effect of a mutation on the interaction,Variant
1,decreasing interaction strength,MEEKEGIKDSSLLEKSNVPESINEDISKTTDVDLNSDGKKDNDTSAKDGTPKVEEKVNKSSGIDEDEVVTPAEDAKEEEEEHPPLPARRKSEEEPSKENPILQELKDAFPNLEEKYIKAVIIASQGVLSPAFNALLFLSDPESGKDIELPTQPVRKNPEAPARRRQTQLEQDELLARQLDEQFNSSHSRRRNRDRATRSMHEQRRRRHNPNEREQHHEDSEEEDSWSQFVEKDLPELTDRAGRSLQDTANKVSNWISDAYRRNFASGNEQNDNQHGHQDQQEWEPEIVDLSQGGKNSRPQQPERRRFNSFGVQVGDDSLESHGITLHNEDGFEDDEDVPPQLPTRTKSGESTGKVVAETTYIDTPDTETKKKWQPAPPEPLDTTPTKVNAVSRNKKNPDEDEFLINSDDEM [L376A]
2,decreasing interaction strength,MEEKEGIKDSSLLEKSNVPESINEDISKTTDVDLNSDGKKDNDTSAKDGTPKVEEKVNKSSGIDEDEVVTPAEDAKEEEEEHPPLPARRKSEEEPSKENPILQELKDAFPNLEEKYIKAVIIASQGVLSPAFNALLFLSDPESGKDIELPTQPVRKNPEAPARRRQTQLEQDELLARQLDEQFNSSHSRRRNRDRATRSMHEQRRRRHNPNEREQHHEDSEEEDSWSQFVEKDLPELTDRAGRSLQDTANKVSNWISDAYRRNFASGNEQNDNQHGHQDQQEWEPEIVDLSQGGKNSRPQQPERRRFNSFGVQVGDDSLESHGITLHNEDGFEDDEDVPPQLPTRTKSGESTGKVVAETTYIDTPDTETKKKAQPLPPEPLDTTPTKVNAVSRNKKNPDEDEFLINSDDEM [W373A]
3,disrupting interaction strength,MEEKEGIKDSSLLEKSNVPESINEDISKTTDVDLNSDGKKDNDTSAKDGTPKVEEKVNKSSGIDEDEVVTPAEDAKEEEEEHPPLPARRKSEEEPSKENPILQELKDAFPNLEEKYIKAVIIASQGVLSPAFNALLFLSDPESGKDIELPTQPVRKNPEAPARRRQTQLEQDELLARQLDEQFNSSHSRRRNRDRATRSMHEQRRRRHNPNEREQHHEDSEEEDSWSQFVEKDLPELTDRAGRSLQDTANKVSNWISDAYRRNFASGNEQNDNQHGHQDQQEWEPEIVDLSQGGKNSRPQQPERRRFNSFGVQVGDDSLESHGITLHNEDGFEDDEDVPPQLPTRTKSGESTGKVVAETTYIDTPDTETKKKAAAAPPEPLDTTPTKVNAVSRNKKNPDEDEFLINSDDEM [W373A;Q374A;P375A;L376A]

# Variants of: B2
# Conditions: with hd_human HTT
row,effect of a mutation on the interaction,Variant
1,disrupting interaction strength,MEEKEGIKDSSLLEKSNVPESINEDISKTTDVDLNSDGKKDNDTSAKDGTPKVEEKVNKSSGIDEDEVVTPAEDAKEEEEEHPPLPARRKSEEEPSKENPILQELKDAFPNLEEKYIKAVIIASQGVLSPAFNAAAFLSDPESGKDIELPTQPVRKNPEAPARRRQTQLEQDELLARQLDEQFNSSHSRRRNRDRATRSMHEQRRRRHNPNEREQHHEDSEEEDSWSQFVEKDLPELTDRAGRSLQDTANKVSNWISDAYRRNFASGNEQNDNQHGHQDQQEWEPEIVDLSQGGKNSRPQQPERRRFNSFGVQVGDDSLESHGITLHNEDGFEDDEDVPPQLPTRTKSGESTGKVVAETTYIDTPDTETKKKWQPLPPEPLDTTPTKVNAVSRNKKNPDEDEFLINSDDEM [L135A;L136A]
